Laboratory results from the supplement of paper PMC12855868.

B1: library; numbered along this chain (parent)
chain: MAAAGGARLLRAASAVLGGPAGRWLHHAGSRAGSSGLLRNRGPGGSAEASRSLSVSARARSSSEDKITVHFINRDGETLTTKGKVGDSLLDVVVENNLDIDGFGACEGTLACSTCHLIFEDHIYEKLDAITDEENDMLDLAYGLTDRSRLGCQICLTKSMDNMTVRVPETVADARQSIDVGKTS

Variants of: B1
Assay: scaled log2 fold change in cell abundance, elesclomol vs control (0 = silent mean, 1 = nonsense mean) (scaled log2 ratio); higher = higher viability under elesclomol (loss of FDX1 cuproptosis function)
Settings: glucose 10 mM
[1] = with ABC1 FDX1 KO, elesclomol 5 nM, 14 days
[2] = with HEK293T FDX1 KO, elesclomol 40 nM, 11 days
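Note: variant abundance is its share of total variant reads in each endpoint sample, from next-generation sequencing of the integrated ORF PCR-amplified out of genomic DNA.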

## D179K
[1]
  scaled log2 fold change: 0.53
[2]
  scaled log2 fold change: -0.385

## D179I
[1]
  scaled log2 fold change: -0.885
[2]
  scaled log2 fold change: 0.926

## D179G
[1]
  scaled log2 fold change: 0.226
[2]
  scaled log2 fold change: 0.304

## D179T
[1]
  scaled log2 fold change: 0.106
[2]
  scaled log2 fold change: 0.00101

## D179F
[1]
  scaled log2 fold change: -0.352
[2]
  scaled log2 fold change: 0.995

## D179N
[1]
  scaled log2 fold change: 0.063

## D179S
[1]
  scaled log2 fold change: 0.558
[2]
  scaled log2 fold change: 0.929

## D179M
[1]
  scaled log2 fold change: 0.0418
[2]
  scaled log2 fold change: -0.494

## D179R
[1]
  scaled log2 fold change: 0.498
[2]
  scaled log2 fold change: -0.221

## D179V
[1]
  scaled log2 fold change: -0.0481
[2]
  scaled log2 fold change: 0.172

## D179L
[1]
  scaled log2 fold change: 0.0184
[2]
  scaled log2 fold change: 1.12

## D179Y
[1]
  scaled log2 fold change: 0.0967
[2]
  scaled log2 fold change: -0.339

## D179A
[1]
  scaled log2 fold change: -0.393
[2]
  scaled log2 fold change: -0.278

## D179E
[1]
  scaled log2 fold change: -0.000144
[2]
  scaled log2 fold change: 0.0611

## A174V
[1]
  scaled log2 fold change: 0.037
[2]
  scaled log2 fold change: -0.188

## A174P
[1]
  scaled log2 fold change: -0.155
[2]
  scaled log2 fold change: -0.277

## A174W
[1]
  scaled log2 fold change: 0.23
[2]
  scaled log2 fold change: -0.353

## A174Y
[1]
  scaled log2 fold change: 0.11
[2]
  scaled log2 fold change: 0.358

## A174S
[1]
  scaled log2 fold change: -0.111
[2]
  scaled log2 fold change: -0.662

## A174Q
[1]
  scaled log2 fold change: -0.051

## A174R
[1]
  scaled log2 fold change: -0.108
[2]
  scaled log2 fold change: 0.908

## A174T
[1]
  scaled log2 fold change: 0.187
[2]
  scaled log2 fold change: -0.546

## R175N
[1]
  scaled log2 fold change: 0.0623
[2]
  scaled log2 fold change: 0.495

## R175F
[1]
  scaled log2 fold change: 0.208
[2]
  scaled log2 fold change: 0.0272

## R175T
[1]
  scaled log2 fold change: 0.48
[2]
  scaled log2 fold change: 0.313

## R175V
[1]
  scaled log2 fold change: 0.472
[2]
  scaled log2 fold change: -0.0442

## R175G
[1]
  scaled log2 fold change: 0.394

## R175L
[1]
  scaled log2 fold change: 0.518

## R175M
[1]
  scaled log2 fold change: -0.223
[2]
  scaled log2 fold change: 0.0945

## R175C
[1]
  scaled log2 fold change: -0.0756
[2]
  scaled log2 fold change: 0.45

## R175W
[1]
  scaled log2 fold change: 0.307
[2]
  scaled log2 fold change: -0.0023

## R175Y
[1]
  scaled log2 fold change: 0.225
[2]
  scaled log2 fold change: -0.118

## R175P
[1]
  scaled log2 fold change: -0.117
[2]
  scaled log2 fold change: 0.128

## R175K
[1]
  scaled log2 fold change: 0.138
[2]
  scaled log2 fold change: -0.161

## R175S
[1]
  scaled log2 fold change: 0.343
[2]
  scaled log2 fold change: 0.224

## R175E
[1]
  scaled log2 fold change: 0.417
[2]
  scaled log2 fold change: 0.643

## R175A
[1]
  scaled log2 fold change: 0.455
[2]
  scaled log2 fold change: -0.138

## R175Q
[1]
  scaled log2 fold change: -1.39
[2]
  scaled log2 fold change: -0.894

## R175D
[1]
  scaled log2 fold change: 0.148
[2]
  scaled log2 fold change: 1.25

## R175I
[1]
  scaled log2 fold change: -0.385
[2]
  scaled log2 fold change: 0.157

## R175H
[1]
  scaled log2 fold change: 0.468
[2]
  scaled log2 fold change: -0.908

## Q176D
[1]
  scaled log2 fold change: -0.118
[2]
  scaled log2 fold change: -0.177

## Q176R
[1]
  scaled log2 fold change: -0.155
[2]
  scaled log2 fold change: 0.492

## Q176G
[1]
  scaled log2 fold change: -0.184
[2]
  scaled log2 fold change: -0.11

## Q176A
[1]
  scaled log2 fold change: 0.239
[2]
  scaled log2 fold change: 0.8

## Q176C
[1]
  scaled log2 fold change: 0.128
[2]
  scaled log2 fold change: -0.158

## Q176F
[1]
  scaled log2 fold change: -0.29
[2]
  scaled log2 fold change: 0.182

## Q176H
[1]
  scaled log2 fold change: -0.0199
[2]
  scaled log2 fold change: 0.909

## Q176N
[1]
  scaled log2 fold change: -0.0287
[2]
  scaled log2 fold change: 1.21

## Q176S
[1]
  scaled log2 fold change: -0.0172
[2]
  scaled log2 fold change: -0.0154

## Q176E
[1]
  scaled log2 fold change: 0.157
[2]
  scaled log2 fold change: -0.685

## Q176T
[1]
  scaled log2 fold change: -0.0483
[2]
  scaled log2 fold change: -0.279

## Q176M
[1]
  scaled log2 fold change: 0.291

## Q176W
[1]
  scaled log2 fold change: -0.225
[2]
  scaled log2 fold change: 0.328

## Q176Y
[1]
  scaled log2 fold change: 0.0438
[2]
  scaled log2 fold change: 1.3

## Q176L
[1]
  scaled log2 fold change: -0.0736
[2]
  scaled log2 fold change: -0.65

## Q176P
[1]
  scaled log2 fold change: 0.375
[2]
  scaled log2 fold change: 0.159

## Q176I
[1]
  scaled log2 fold change: 0.324
[2]
  scaled log2 fold change: -0.471

## Q176V
[1]
  scaled log2 fold change: 0.192
[2]
  scaled log2 fold change: -0.626

## Q176K
[1]
  scaled log2 fold change: 0.426
[2]
  scaled log2 fold change: 0.463
